Laboratory results taken from US20090016988.

Legend:
[1] = test system: MPPT1 (proaerolysin with the furin site KVRRAR replaced by the uPA site SGRSAQ, and a His tag)
[2] = test system: MPPT5 (proaerolysin with the MMP2 site HPVGLLAR joined by a GG linker to the uPA site SGRSAQ in the)
[3] = test system: wild-type proaerolysin from Aeromonas hydrophila
[4] = test system: MPPT4 (proaerolysin with the activation sequence KVRRAR changed to the MMP2 site HPVGLLAR, 6xHis tag)

urokinase-type plasminogen activator (uPA)
Hemolytic titer, 0.016 mg/mL uPA (hemolytic titer (wells with lysed cells)) [1]: 6
Hemolytic titer, 0.04 mg/mL uPA (hemolytic titer (wells with lysed cells)) [1]: 7.5
Hemolytic titer, 0.08 mg/mL uPA (hemolytic titer (wells with lysed cells)) [1]: 7.5
activation by uPA digestion (Coomassie stained SDS-PAGE) [1]: the MPPT1 sample digested with 1 µg of uPA showed an activated aerolysin band (˜48 kDa; lowest band), and a high molecular weight oligomer band
conversion to aerolysin by 0.016 mg/mL uPA (SDS-PAGE) [1]: MPPT1 was nearly 50% converted
digestion with uPA, 120 minutes (Coomassie stained SDS-PAGE) [1]: After 120 minutes, the MPPT1 is almost completely activated by 0.04 mg/mL uPA
Hemolytic titer after uPA digestion (hemolytic titer (wells with lysed cells)) [2]: 7
Hemolytic titer after uPA digestion (hemolytic titer (wells with lysed cells)) [3]: 5
Hemolytic titer, 0.016 mg/mL uPA (hemolytic titer (wells with lysed cells)) [3]: 0
Hemolytic titer, 0.04 mg/mL uPA (hemolytic titer (wells with lysed cells)) [3]: 2.5
Hemolytic titer, 0.08 mg/mL uPA (hemolytic titer (wells with lysed cells)) [3]: 6
activation by uPA digestion (Coomassie stained SDS-PAGE) [3]: No activated aerolysin band, and only a very faint high molecular weight oligomer band, was seen for the PA sample digested with 1 µg of uPA
conversion to aerolysin by 0.016 mg/mL uPA (SDS-PAGE) [3]: No PA was converted to aerolysin when treated with 0.016 mg/mL uPA under these conditions
digestion with uPA, 2 hours (silver stained SDS-PAGE) [3]: it is somewhat sensitive to uPA, though not to the degree seen for MPPT5
digestion with uPA, 120 minutes (Coomassie stained SDS-PAGE) [3]: whereas much less PA was activated

active MMP2 protease (EMD/Calbiochem)
digestion with MMP2 (Western blot, 48 hour incubation samples) [4]: complete digestion for MPPT4
digestion with MMP2, 24 hours (silver stained SDS-PAGE) [4]: complete digestion for MPPT4 for all concentrations shown
Hemolytic titer after MMP2 digestion (hemolytic titer (wells with lysed cells)) [2]: 6.5
Hemolytic titer after MMP2 digestion (hemolytic titer (wells with lysed cells)) [3]: 0
digestion with MMP2 (Western blot, 48 hour incubation samples) [3]: less than 50% digestion for PA
digestion with MMP2, 2 hours (silver stained SDS-PAGE) [3]: PA is not measurably affected by MMP2
digestion with MMP2, 24 hours (silver stained SDS-PAGE) [3]: a small amount of digestion for PA
